Reference: patent US20250388669A1 (published 2025)

B1: Ly2438 (bispecific antibody)
heavy 1: QVQLVQSGAEVKKPGASVKVSCKASGYTFTDFWMSWVRQAPGQGLEWMGQIYPNTGTTHSNEKFKGRVTMTRDTSTSTVYMELSSLRSEDTAVYYCARSYHISTTPNWFAYWGQGTLVTVSSASTKGPSVFPLAPSSKSTSGGTAALGCLVKDYFPEPVTVSWNSGALTSGVHTFPAVLQSSGLYSLSSVVTVPSSSLGTQTYICNVNHKPSNTKVDKKVEPKSCGGGGSGGGGSGGGGSGGGGSEVQLVESGGGLVQPGGSLRLSCAASGFTFTNYGLHWVRQAPGKGLEWVSSISPSGGVTYYRDSVKGRFTISRDNSKNTLYLQMNSLRAEDTAVYYCAKPFLGWGGANWIAHWGQGTLVTVSSGGGGSDKTHTCPPCPAPEAAGPSVFLFPPKPKDTLMISRTPEVTCVVVDVSHEDPEVKFNWYVDGVEVHNAKTKPREEQYNSTYRVVSVLTVLHQDWLNGKEYKCKVSNKALPAPIEKTISKAKGQPREPQVYTLPPSREEMTKNQVSLWCLVKGFYPSDIAVEWESNGQPENNYKTTPPVLDSDGSFFLYSKLTVDKSRWQQGNVFSCSVMHEALHNHYTQKSLSLSPG
heavy 2: QVQLVQSGAEVKKPGASVKVSCKASGYTFTDFWMSWVRQAPGQGLEWMGQIYPNTGTTHSNEKFKGRVTMTRDTSTSTVYMELSSLRSEDTAVYYCARSYHISTTPNWFAYWGQGTLVTVSSASTKGPSVFPLAPSSKSTSGGTAALGCLVKDYFPEPVTVSWNSGALTSGVHTFPAVLQSSGLYSLSSVVTVPSSSLGTQTYICNVNHKPSNTKVDKKVEPKSCGGGGSGGGGSGGGGSGGGGSDIQMTQSPSSLSASVGDRVTITCLASEDISNDLAWYQQKPGKAPKLLIYFVDRLLDGVPSRFSGSGSGTDFTLTISSLQPEDFATYYCQQSYKYPPTFGQGTKLEIKGGGGSDKTHTCPPCPAPEAAGPSVFLFPPKPKDTLMISRTPEVTCVVVDVSHEDPEVKFNWYVDGVEVHNAKTKPREEQYNSTYRVVSVLTVLHQDWLNGKEYKCKVSNKALPAPIEKTISKAKGQPREPQVYTLPPSREEMTKNQVSLSCAVKGFYPSDIAVEWESNGQPENNYKTTPPVLDSDGSFFLVSKLTVDKSRWQQGNVFSCSVMHEALHNRFTQKSLSLSPG
light: DIQMTQSPSSLSASVGDRVTITCKASQNVYKKLEWYQQKPGKVPKVLIYHTNILQTGVPSRFSGSGSGTDYTLTISSLQPEDVATYYCYQWNSGPTFGGGTKVEIKRTVAAPSVFIFPPSDEQLKSGTASVVCLLNNFYPREAKVQWKVDNALQSGNSQESVTEQDSKDSTYSLSSTLTLSKADYEKHKVYACEVTHQGLSSPVTKSFNRGEC
notes: PD-L1 Fabs (Ly076) x central CD40 Fv (TM559)
B2: Ly2444 (bispecific antibody, human IgG1, kappa)
heavy 1: QVQLVQSGAEVKKPGASVKVSCKASGYTFTDFWMSWVRQAPGQGLEWMGQIYPNTGTTHSNEKFKGRVTMTRDTSTSTVYMELSSLRSEDTAVYYCARSYHISTTPNWFAYWGQGTLVTVSSASTKGPSVFPLAPSSKSTSGGTAALGCLVKDYFPEPVTVSWNSGALTSGVHTFPAVLQSSGLYSLSSVVTVPSSSLGTQTYICNVNHKPSNTKVDKKVEPKSCDKTHTCPPCPAPEAAGPSVFLFPPKPKDTLMISRTPEVTCVVVDVSHEDPEVKFNWYVDGVEVHNAKTKPREEQYNSTYRVVSVLTVLHQDWLNGKEYKCKVSNKALPAPIEKTISKAKGQPREPQVYTLPPSREEMTKNQVSLWCLVKGFYPSDIAVEWESNGQPENNYKTTPPVLDSDGSFFLYSKLTVDKSRWQQGNVFSCSVMHEALHNHYTQKSLSLSPGGGGGSGGGGSGGGGSGGGGSEVQLVESGGGLVQPGGSLRLSCAASGFTFTNYGLHWVRQAPGKGLEWVSSISPSGGVTYYRDSVKGRFTISRDNSKNTLYLQMNSLRAEDTAVYYCAKPFLGWGGANWIAHWGQGTLVTVSS
heavy 2: QVQLVQSGAEVKKPGASVKVSCKASGYTFTDFWMSWVRQAPGQGLEWMGQIYPNTGTTHSNEKFKGRVTMTRDTSTSTVYMELSSLRSEDTAVYYCARSYHISTTPNWFAYWGQGTLVTVSSASTKGPSVFPLAPSSKSTSGGTAALGCLVKDYFPEPVTVSWNSGALTSGVHTFPAVLQSSGLYSLSSVVTVPSSSLGTQTYICNVNHKPSNTKVDKKVEPKSCDKTHTCPPCPAPEAAGPSVFLFPPKPKDTLMISRTPEVTCVVVDVSHEDPEVKFNWYVDGVEVHNAKTKPREEQYNSTYRVVSVLTVLHQDWLNGKEYKCKVSNKALPAPIEKTISKAKGQPREPQVYTLPPSREEMTKNQVSLSCAVKGFYPSDIAVEWESNGQPENNYKTTPPVLDSDGSFFLVSKLTVDKSRWQQGNVFSCSVMHEALHNRFTQKSLSLSPGGGGGSGGGGSGGGGSGGGGSDIQMTQSPSSLSASVGDRVTITCLASEDISNDLAWYQQKPGKAPKLLIYFVDRLLDGVPSRFSGSGSGTDFTLTISSLQPEDFATYYCQQSYKYPPTFGQGTKLEIK
light: B1 light
notes: PD-L1 Fabs (Ly076) x terminal CD40 Fv (TM559)
B3: Ly1963 (other)
chain 1: QVQLVQSGAEVKKPGASVKVSCKASGYTFTSYVMHWVRQKPGQGLEWIGYINPYNEGTESTDKFKGRATMTSDKSTSTVYMELSSLRSEDTAVYYCASIYYGYEGTYFGVWGQGTLVTVSSASTKGPSVFPLAPSSKSTSGGTAALGCLVKDYFPEPVTVSWNSGALTSGVHTFPAVLQSSGLYSLSSVVTVPSSSLGTQTYICNVNHKPSNTKVDKKVEPKSCGGGGSGGGGSGGGGSGGGGSEVQLVESGGGLVQPGGSLRLSCAASGFTFSTYAMNWVRQAPGKGLEWVGRIRSKYNNYATYYADSVKGRFTISRDDSKNSLYLQMNSLKTEDTAVYYCVRHGNFGNSYVSWFAYWGQGTLVTVSSGGGGSDKTHTCPPCPAPEAAGPSVFLFPPKPKDTLMISRTPEVTCVVVDVSHEDPEVKFNWYVDGVEVHNAKTKPREEQYNSTYRVVSVLTVLHQDWLNGKEYKCKVSNKALPAPIEKTISKAKGQPREPQVYTLPPSREEMTKNQVSLWCLVKGFYPSDIAVEWESNGQPENNYKTTPPVLDSDGSFFLYSKLTVDKSRWQQGNVFSCSVMHEALHNHYTQKSLSLSPGGGGGSGGGGSGGGGSGGGGSQVQLVQSGAEVKKPGASVKVSCKASGYTFAGFEMHWVRQAPGQGLEWMGAIDPKTGGTDYNQKFKDRVTMTRDTSISTAYMELSRLRSDDTAVYYCARDLGYFDVWGQGTLVTVSS
chain 2: QVQLVQSGAEVKKPGASVKVSCKASGYTFTSYVMHWVRQKPGQGLEWIGYINPYNEGTESTDKFKGRATMTSDKSTSTVYMELSSLRSEDTAVYYCASIYYGYEGTYFGVWGQGTLVTVSSASTKGPSVFPLAPSSKSTSGGTAALGCLVKDYFPEPVTVSWNSGALTSGVHTFPAVLQSSGLYSLSSVVTVPSSSLGTQTYICNVNHKPSNTKVDKKVEPKSCGGGGSGGGGSGGGGSGGGGSQAVVTQEPSLTVSPGGTVTLTCRSSTGAVTTSNYANWVQQKPGQAPRGLIGGTNKRAPWTPARFSGSLLGGKAALTITGAQAEDEADYYCALWYSNLWVFGGGTKLTVLGGGGSDKTHTCPPCPAPEAAGPSVFLFPPKPKDTLMISRTPEVTCVVVDVSHEDPEVKFNWYVDGVEVHNAKTKPREEQYNSTYRVVSVLTVLHQDWLNGKEYKCKVSNKALPAPIEKTISKAKGQPREPQVYTLPPSREEMTKNQVSLSCAVKGFYPSDIAVEWESNGQPENNYKTTPPVLDSDGSFFLVSKLTVDKSRWQQGNVFSCSVMHEALHNHYTQKSLSLSPGGGGGSGGGGSGGGGSGGGGSDIQMTQSPSSLSASVGDRVTITCRASQDIRSNLNWYQQKPGGAVKLLIYYTSRLHSGVPSRFSGSGSGTDYTLTISSLQPEDFATYFCQQSEKLPRTFGGGTKVEIR
light: EIVLTQSPATLSLSPGERATLSCRASSSVSYMHWYQQKPGQAPRPWIYATSNLASGIPARFSGSRSGTDYTLTISSLEPEDFAVYYCQQWSSNTLTFGGGTKVEIKRTVAAPSVFIFPPSDEQLKSGTASVVCLLNNFYPREAKVQWKVDNALQSGNSQESVTEQDSKDSTYSLSSTLTLSKADYEKHKVYACEVTHQGLSSPVTKSFNRGEC
notes: Tri-specific antibody B7H3 (two Fabs) / CD3 (central Fv) / CD137 (terminal Fv)
B4: Ly2122 (bispecific antibody, human IgG1, kappa)
chain 1: QVQLVQSGAEVKKPGASVKVSCKASGYTFTSYVMHWVRQKPGQGLEWIGYINPYNEGTESTDKFKGRATMTSDKSTSTVYMELSSLRSEDTAVYYCASIYYGYEGTYFGVWGQGTLVTVSSASTKGPSVFPLAPSSKSTSGGTAALGCLVKDYFPEPVTVSWNSGALTSGVHTFPAVLQSSGLYSLSSVVTVPSSSLGTQTYICNVNHKPSNTKVDKKVEPKSCDKTHTCPPCPAPEAAGPSVFLFPPKPKDTLMISRTPEVTCVVVDVSHEDPEVKFNWYVDGVEVHNAKTKPREEQYNSTYRVVSVLTVLHQDWLNGKEYKCKVSNKALPAPIEKTISKAKGQPREPQVYTLPPSREEMTKNQVSLWCLVKGFYPSDIAVEWESNGQPENNYKTTPPVLDSDGSFFLYSKLTVDKSRWQQGNVFSCSVMHEALHNHYTQKSLSLSPGGGGGSGGGGSGGGGSGGGGSQVQLVQSGAEVKKPGASVKVSCKASGYTFAGFEMHWVRQAPGQGLEWMGAIDPKTGGTDYNQKFKDRVTMTRDTSISTAYMELSRLRSDDTAVYYCARDLGYFDVWGQGTLVTVSS
chain 2: QVQLVQSGAEVKKPGASVKVSCKASGYTFTSYVMHWVRQKPGQGLEWIGYINPYNEGTESTDKFKGRATMTSDKSTSTVYMELSSLRSEDTAVYYCASIYYGYEGTYFGVWGQGTLVTVSSASTKGPSVFPLAPSSKSTSGGTAALGCLVKDYFPEPVTVSWNSGALTSGVHTFPAVLQSSGLYSLSSVVTVPSSSLGTQTYICNVNHKPSNTKVDKKVEPKSCDKTHTCPPCPAPEAAGPSVFLFPPKPKDTLMISRTPEVTCVVVDVSHEDPEVKFNWYVDGVEVHNAKTKPREEQYNSTYRVVSVLTVLHQDWLNGKEYKCKVSNKALPAPIEKTISKAKGQPREPQVYTLPPSREEMTKNQVSLSCAVKGFYPSDIAVEWESNGQPENNYKTTPPVLDSDGSFFLVSKLTVDKSRWQQGNVFSCSVMHEALHNRFTQKSLSLSPGGGGGSGGGGSGGGGSGGGGSDIQMTQSPSSLSASVGDRVTITCRASQDIRSNLNWYQQKPGGAVKLLIYYTSRLHSGVPSRFSGSGSGTDYTLTISSLQPEDFATYFCQQSEKLPRTFGGGTKVEIR
light: B3 light
notes: Bispecific B7H3 (two Fabs) / CD137 (terminal Fv)

What was measured:
CD40 = CD40 (UniProt P25942 21-193, limits assumed); assay: FCM or ELISA, graded
Chain of CD40 (P25942 21-193 limits assumed): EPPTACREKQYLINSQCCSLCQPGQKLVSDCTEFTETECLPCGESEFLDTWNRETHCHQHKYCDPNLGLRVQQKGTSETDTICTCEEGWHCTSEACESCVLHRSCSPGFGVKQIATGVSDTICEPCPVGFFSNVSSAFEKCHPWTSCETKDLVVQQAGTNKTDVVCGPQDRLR

PD-L1 (binding assay) = PD-L1 (binding assay) (UniProt Q9NZQ7 19-238, limits assumed); assay: FCM or ELISA, graded
Chain of PD-L1 (binding assay) (Q9NZQ7 19-238 limits assumed): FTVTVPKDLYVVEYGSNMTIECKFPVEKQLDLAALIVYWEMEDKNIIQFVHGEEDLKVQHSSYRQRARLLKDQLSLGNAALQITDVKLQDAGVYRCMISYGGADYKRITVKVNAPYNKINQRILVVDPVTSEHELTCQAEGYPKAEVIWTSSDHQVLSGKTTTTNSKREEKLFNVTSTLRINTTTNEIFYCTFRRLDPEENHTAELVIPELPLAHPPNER

CD137 = target: T1, CD137 (UniProt Q07011 24-186, limits assumed); assay: FCM or ELISA (graded summary table)
T1 construct: also called 4-1BB

B7H3 = target: T2, B7H3 (UniProt Q5ZPR3 29-466, limits assumed); assay: FCM or ELISA (graded summary table)
T2 sequence (looked up): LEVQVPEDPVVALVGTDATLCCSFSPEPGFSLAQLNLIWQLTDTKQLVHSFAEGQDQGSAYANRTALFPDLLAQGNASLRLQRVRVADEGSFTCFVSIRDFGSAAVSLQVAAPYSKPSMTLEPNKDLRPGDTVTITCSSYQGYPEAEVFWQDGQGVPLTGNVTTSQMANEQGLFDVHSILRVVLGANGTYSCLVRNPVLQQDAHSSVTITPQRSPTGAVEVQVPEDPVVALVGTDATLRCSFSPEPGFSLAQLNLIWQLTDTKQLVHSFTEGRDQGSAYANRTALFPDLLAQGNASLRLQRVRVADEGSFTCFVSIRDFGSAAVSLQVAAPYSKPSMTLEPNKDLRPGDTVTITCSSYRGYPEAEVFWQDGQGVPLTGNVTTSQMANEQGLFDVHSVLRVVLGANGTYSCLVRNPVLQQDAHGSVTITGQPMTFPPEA

Binder | binding result (CD40) | binding result (PD-L1 (binding assay)) | binding result (CD137) | binding result (B7H3)
B1 | binds | binds |  | 
B2 | binds | binds |  | 
B3 |  |  | binds | binds
B4 |  |  | binds | binds
